# Paper PMC6288289
# Biological target: HAF protein (trimeric recombinant H5N1 hemagglutinin ectodomain with the bacteriophage T4 fibritin fold on trimerization sequence) (influenza A virus A/Anhui/1/2005 (H5N1) | bacteriophage T4)
# Assay: SEC; […], running buffer pH 8.0 ([…]
substance,measurement,value
HAF protein (trimeric recombinant H5N1 hemagglutinin ectodomain with the bacteriophage T4 fibritin fold on trimerization sequence),stoichiometry N,3
